Experimental data: patent US20090325867A1, “RECEPTOR-SPECIFIC TUMOUR NECROSIS FACTOR-RELATED APOPTOSIS-INDUCING LIGAND (TRAIL) VARIANTS” (MEDICAL RESEARCH COUNCIL, priority 2005, published 2009)
Residue numbers refer to the chain shown, from its start.

B1: TRAIL.R2-6: His-TRAIL (95-281) with 189Gln, 191Lys, 193Arg, 264Arg, 266Leu, 267Gln; TRAIL-R2 selective mutant (protein)
chain: TSEETISTVQEKQQNISPLVRERGPQRVAAHITGTRGRSNTLSSPNSKNEKALGRKINSWESSRSGHSFLSNLHLRNGELVIHEKGFYYIYSQTQFKFREEIKENTKNDKQMVQYIYKYTSYPDPILLMKSARNSCWSKDAEYGLYSIYQGGIFELKENDRIFVSVTNERLLQMDHEASFFGAFLVG
modifications: biotin (site not stated) in the DISC analysis only; not biotinylated in the apoptosis assays
B2: TRAIL.R1-6: His-TRAIL (95-281) with 189Ala, 193Ser, 199Val, 201Arg, 213Trp, 215Asp; proposed TRAIL-R1 selective mutant of Kelley et al. (protein)
chain: B1 chain with Q95A, K97R, R99S, N105V, K107R, Y119W, S121D, R170H, L172I, Q173D
modifications: biotin (site not stated) in the DISC analysis only; not biotinylated in the apoptosis assays

How the values were obtained:
primary MCL cells = assay: Apoptosis in freshly isolated primary MCL cells with or without depsipeptide pre-treatment; assay type: cell-based, human; conditions: depsipeptide 5 nM 16 h, spontaneous apoptosis 23.4±2.9%
Description: Cell lines were also pre-incubated for 30 min with a TRAIL-R1 blocking Ab and a TRAIL-R2 neutralizing Ab from Alexis and R&D systems, respectively, prior to exposure to TRAIL. Freshly isolated cells from patients with MCL were isolated, purified and incubated with different forms of TRAIL as described above for CLL cells. Samples were either analyzed immediately for apoptosis or stored at −80° C. for subsequent Western blotting. Other methods and reagents were as described (Inoue (2004 Cell Death Differ 11 Suppl 2, S193-206); MacFarlane et al., 2005 ibid).
(§1) Apoptosis was quantified by phosphatidylserine (PS) externalization in the presence of propidium iodide as described (MacFarlane et al., 2002 ibid.). Samples for Western blot analysis were prepared and caspase processing detected as described (Inoue et al., 2004 ibid.; MacFarlane et al., 2005 ibid.).
We also obtained three samples from patients with mantle cell lymphoma (MCL), an incurable and aggressive disease that accounts for ˜6% of all non-Hodgkin's lymphoma. There are no standard treatments for MCL and the prognosis is very poor particularly for the blastoid variant. MCL cells were isolated and exposed to the different forms of TRAIL after pre-treatment for 16 h with depsipeptide (5 nM).

Ramos cells [1] = assay: Apoptosis by phosphatidylserine (PS) externalization in Ramos cells; assay type: cell-based; conditions: for % PS+ cells, Ramos: 4 h exposure, 500 ng ml^−, Mean ± SEM of at least three determinations; for ability to induce apoptosis in Ramos cells (in words): PS externalization, compared with wt TRAIL
Description: (§2) Cells were also exposed to HGS-ETR1 or HGSETR2 (1 μg ml^−1). C: Ramos or Jurkat cells were pre-incubated for 30 min either alone or with TRAIL-R1 blocking Ab or TRAIL-R2 neutralizing Ab (5 μg ml^−1). […] D: Ramos and Jurkat cells were exposed to wt TRAIL or TRAIL mutants as described above and processing of caspase-3 and -8 determined by Western blot analysis. The asterisk indicates a non-specific band. The lower panel of the blot for detection of the caspase-8 p18 subunit was exposed for twice as long as the upper panel. Apoptosis was assessed by phosphatidylserine externalization and results expressed as the Means±SEM of at least 3 separate determinations.
(§3) Ramos, an Epstein-Barr virus-negative Burkitt's lymphoma cell line, and Jurkat T cells (clone E6-1) were cultured as described (MacFarlane et al (2005 Cell Death and Differentiation vol 12 pages 773-782)). Blood samples were obtained from CLL patients, with patient consent and local ethical committee approval and CLL cells purified as described (MacFarlane et al (2002 Oncogene 21, 6809-6818). Cells were incubated for 16 h with depsipeptide (10 nM), provided by Dr. E. Sausville (NCI, USA). Cells were then cultured for a further 6 h with either HGSETR1 or HGS-ETR2, agonistic mAbs to TRAIL-R1 or -R2, respectively (Human Genome Sciences, Rockville, Md.), His-TRAIL-LE (a recombinant TRAIL with low endotoxin—Alexis Corporation, Nottingham, UK), His-TRAIL, a similar form of human recombinant TRAIL (MacFarlane et al (1997 J Biol Chem 272, 25417-25420)) but not further purified to reduce endotoxin levels or a mutant form of His-TRAIL as described (MacFarlane et al., 2005 ibid.). Cell lines were also pre-incubated for 30 min with a TRAIL-R1 blocking Ab and a TRAIL-R2 neutralizing Ab from Alexis and R&D systems, respectively, prior to exposure to TRAIL. Freshly isolated cells from patients with MCL were isolated, purified and incubated with different forms of TRAIL as described above for CLL cells. Samples were either analyzed immediately for apoptosis or stored at −80° C. for subsequent Western blotting. Other methods and reagents were as described (Inoue (2004 Cell Death Differ 11 Suppl 2, S193-206); MacFarlane et al., 2005 ibid).
as §1
Ramos and Jurkat T cells (clone E6-1) were cultured as described (MacFarlane et al, 2005 ibid.). The breast tumour cell line, MCF-7 (clone F43) was cultured as described previously (MacFarlane et al., 2000 J. Cell Biol. 148, 1239-1254). Cells were cultured for either 4 h (Ramos and Jurkat) or 6 h (MCF-7) with His-TRAIL (MacFarlane et al, 1997 J Biol Chem 272, 25417-25420), HGS-ETR1 or HGS-ETR2 (Human Genome Sciences), or a mutant form of His-TRAIL (MacFarlane et al, 2005 ibid.). Samples were analyzed for apoptosis, Western blotting, or TRAIL DISC activation as described (MacFarlane et al, 2005 ibid.; MacFarlane et al. 2002 Oncogene 21, 6809-6818). Mutants of His-TRAIL (residues 95-281) were generated using the Quik-Change site-directed mutagenesis kit (Stratagene, Calif.), confirmed by DNA sequencing, expressed in E. coli and purified as described (MacFarlane et al, 1997 ibid.). For siRNA targeting of TRAIL-R1/-R2, MCF-7 cells were seeded into six-well plates immediately prior to effectene-mediated RNAi transfection with either a negative control siRNA (30 nM, Ambion, #4611), or preannealed siRNA oligonucleotides for TRAIL-R1 or TRAIL-R2 (30 nM, Ambion), with the sequence and validity described (Ren et al, 2004 Mol. Biol. Cell vol 15 pp 5064-5074). After 40 h of transfection the cells were collected and total TRAIL-R1 or TRAIL-R2 levels assessed. […]

Jurkat cells [2] = assay: Apoptosis by phosphatidylserine (PS) externalization in Jurkat cells; assay type: cell-based; conditions: for % PS+ cells, Jurkat: 4 h exposure, 500 ng ml^−, Mean ± SEM of at least three determinations; for ability to induce apoptosis in Jurkat cells (in words): PS externalization, compared with wt TRAIL
Description: as §2, with “determinations. […]” for “determinations.”
as §1
Ramos and Jurkat T cells (clone E6-1) were cultured as described (MacFarlane et al, 2005 ibid.). The breast tumour cell line, MCF-7 (clone F43) was cultured as described previously (MacFarlane et al., 2000 J. Cell Biol. 148, 1239-1254). Cells were cultured for either 4 h (Ramos and Jurkat) or 6 h (MCF-7) with His-TRAIL (MacFarlane et al, 1997 J Biol Chem 272, 25417-25420), HGS-ETR1 or HGS-ETR2 (Human Genome Sciences), or a mutant form of His-TRAIL (MacFarlane et al, 2005 ibid.). Samples were analyzed for apoptosis, Western blotting, or TRAIL DISC activation as described (MacFarlane et al, 2005 ibid.; MacFarlane et al. 2002 Oncogene 21, 6809-6818). Mutants of His-TRAIL (residues 95-281) were generated using the Quik-Change site-directed mutagenesis kit (Stratagene, Calif.), confirmed by DNA sequencing, expressed in E. coli and purified as described (MacFarlane et al, 1997 ibid.). For siRNA targeting of TRAIL-R1/-R2, MCF-7 cells were seeded into six-well plates immediately prior to effectene-mediated RNAi transfection with either a negative control siRNA (30 nM, Ambion, #4611), or preannealed siRNA oligonucleotides for TRAIL-R1 or TRAIL-R2 (30 nM, Ambion), with the sequence and validity described (Ren et al, 2004 Mol. Biol. Cell vol 15 pp 5064-5074). After 40 h of transfection the cells were collected and total TRAIL-R1 or TRAIL-R2 levels assessed. Where indicated, RNAi transfected MCF-7 cells were either left untreated or exposed to wt-TRAIL and apoptosis assessed by the extent of Bax activation, determined using the conformation specific Bax MAb, clone 3 (Dewson et al, 2003 Oncogene vol 22 pp 2643-54).

Ramos cells [3] = assay: Caspase-8 and -3 processing by Western blot in Ramos cells; assay type: cell-based; conditions: FIG. 1D
Description: as §2, §1
(§4) To confirm that the mutants were inducing apoptosis, we examined their effects on the processing of caspase-8, the apical caspase in death receptor-induced apoptosis and caspase-3, an effector caspase.

Jurkat cells [4] = assay: Caspase-8 and -3 processing by Western blot in Jurkat cells; assay type: cell-based; conditions: FIG. 1D
Description: as §2, §1, §4

[5] = system: TRAIL DISC in Ramos cells; assay: DISC analysis with biotinylated TRAIL in Ramos cells; assay type: cell-based; conditions: biotinylated ligand 500 ng ml^−1, 30 min
Description: (§5) After exposure of the cells for 30 min, DISC complexes were isolated and analyzed for the indicated proteins by Western blotting. To provide an unstimulated receptor control (u/s), biotinylated wt or mutant TRAIL was added to lysate from untreated cells. C: Freshly isolated cells from patients with CLL were incubated for 16 h either alone or in the presence of depsipeptide (10 nM). […] The different symbols used indicate data from six individual patients and the solid line indicates the Mean.
(§6) Ramos or Jurkat cells (5×10^7 cells per treatment) were exposed to biotin-tagged recombinant His-TRAIL (biotinylated TRAIL) or one of its mutant forms (500 ng ml^−1) for 30 min and then DISC formation assessed as described previously (MacFarlane et al., 2002 ibid.).

[6] = system: TRAIL DISC in Jurkat cells; assay: DISC analysis with biotinylated TRAIL in Jurkat cells; assay type: cell-based; conditions: biotinylated ligand 500 ng ml^−1, 30 min
Description: as §5, §6

primary CLL cells = assay: Apoptosis in freshly isolated CLL cells after depsipeptide; assay type: cell-based, human; conditions: depsipeptide 10 nM 16 h, then 6 h ligand or antibody, FIG. 2C
Description: as §5, §3, §1

Row | Molecule | apoptosis, depsipeptide alone (primary MCL cells) | % PS+ cells, Ramos (Ramos cells [1]) | ability to induce apoptosis in Ramos cells (in words) (Ramos cells [1]) | inhibition of induced apoptosis by TRAIL-R1 blocking Ab (Jurkat cells [2]; 30 min pre-incubation with Ab (5 μg ml^−1)) | % PS+ cells, Jurkat (Jurkat cells [2]) | ability to induce apoptosis in Jurkat cells (in words) (Jurkat cells [2]) | processing of caspase-8 and caspase-3 (Ramos cells [3]) | processing of caspases-8 and -3 (Jurkat cells [4]) | DISC formation: receptor bound, FADD and caspase-8 recruitment [5] | DISC formation: receptor bound, FADD and caspase-8 recruitment [6] | sensitization of CLL cells to induced apoptosis by depsipeptide (primary CLL cells)
1 | C/C=C1\NC(=O)[C@H]2CSSCC/C=C/[C@H](CC(=O)N[C@H](C(C)C)C(=O)N2)OC(=O)[C@H](C(C)C)NC1=O [depsipeptide, reference compound] | 35.4±5% | – | – | – | – | – | – | – | – | – | –
2 | B1 | – | 9.4 ± 1.6% | not in Ramos cells | not | 58.4 ± 11.6% | potently induced apoptosis | not | most potent | failed to recruit FADD or caspase-8 to the DISC | bound TRAIL-R2 extensively in the DISC | lack of activity and not
3 | B2 | – | 13.7 ± 1.3% | largely inactive | – | 6.4 ± 0.8% | inactive | – | – | failed to recruit FADD or caspase-8 to the DISC | bound neither TRAIL-R1 nor -R2 | –
